# According to patent US20200087363A1 (IMMATICS BIOTECHNOLOGIES, published 2020):
# B1: ALNGDIYVW (peptide)
# peptide: ALNGDIYVW
# B2: SEKEPGQQY (peptide)
# peptide: SEKEPGQQY
# B3: TELEVKIRDW (peptide)
# peptide: TELEVKIRDW
# B4: EELALRIGL (peptide)
# peptide: EELALRIGL
# B5: KELSVFKKF (peptide)
# peptide: KELSVFKKF
# B6: QEDKATQTL (peptide)
# peptide: QEDKATQTL
# B7: VEAATVSKW (peptide)
# peptide: VEAATVSKW
# B8: SVNPIIYGF (peptide)
# peptide: SVNPIIYGF
# B9: SEDTIHTHL (peptide)
# peptide: SEDTIHTHL
# B10: NEILTIHF (peptide)
# peptide: NEILTIHF
# B11: EELHAALSEW (peptide)
# peptide: EELHAALSEW
# B12: NEAGEVSKHF (peptide)
# peptide: NEAGEVSKHF
# B13: TEEITEGVW (peptide)
# peptide: TEEITEGVW
# B14: SEVEGLAFV (peptide)
# peptide: SEVEGLAFV
# B15: TETDIDREY (peptide)
# peptide: TETDIDREY
# B16: SEDPEKYYL (peptide)
# peptide: SEDPEKYYL
# B17: LEEPMPFFY (peptide)
# peptide: LEEPMPFFY
# B18: SESLPRAPL (peptide)
# peptide: SESLPRAPL
# B19: AEDNMVTSY (peptide)
# peptide: AEDNMVTSY
# B20: RELRPLFDRQW (peptide)
# peptide: RELRPLFDRQW
# B21: SEHSLEGQKF (peptide)
# peptide: SEHSLEGQKF
# B22: AELPENLKALF (peptide)
# peptide: AELPENLKALF
# B23: MEIKGTVTEF (peptide)
# peptide: MEIKGTVTEF
# B24: LEALLSDLF (peptide)
# peptide: LEALLSDLF
# B25: RELPLVLLA (peptide)
# peptide: RELPLVLLA
# B26: MEGAALLKIF (peptide)
# peptide: MEGAALLKIF
# B27: MEHSDENIQFW (peptide)
# peptide: MEHSDENIQFW
# B28: TEGDVLNYIF (peptide)
# peptide: TEGDVLNYIF
# B29: ALTEDSIDDTF (peptide)
# peptide: ALTEDSIDDTF
# B30: HEVAQDDHL (peptide)
# peptide: HEVAQDDHL
# B31: DENDAGNLITF (peptide)
# peptide: DENDAGNLITF
# B32: LEGGGRGGEF (peptide)
# peptide: LEGGGRGGEF
# B33: RENPGMFSW (peptide)
# peptide: RENPGMFSW
# B34: AGSPVMRKW (peptide)
# peptide: AGSPVMRKW
# B35: LEIMTNLVTL (peptide)
# peptide: LEIMTNLVTL
# B36: AEDLEKKYA (peptide)
# peptide: AEDLEKKYA
# B37: EEQLLQKVM (peptide)
# peptide: EEQLLQKVM
# B38: WEVEVGDRTDW (peptide)
# peptide: WEVEVGDRTDW
# B39: LEMLDAHRL (peptide)
# peptide: LEMLDAHRL
# B40: EEHIFSAF (peptide)
# peptide: EEHIFSAF
# B41: AEGEPPPALAW (peptide)
# peptide: AEGEPPPALAW
# B42: MEIEGAGNFL (peptide)
# peptide: MEIEGAGNFL
# B43: DEDLFHKL (peptide)
# peptide: DEDLFHKL
# B44: YEIRAEAL (peptide)
# peptide: YEIRAEAL
# B45: KEAFGPQAL (peptide)
# peptide: KEAFGPQAL
# B46: MEILWKTLT (peptide)
# peptide: MEILWKTLT
# B47: GETQQHIQL (peptide)
# peptide: GETQQHIQL
# B48: LEDQLKPMLEW (peptide)
# peptide: LEDQLKPMLEW
# B49: LEYEAPKLY (peptide)
# peptide: LEYEAPKLY
# B50: REEEANVVL (peptide)
# peptide: REEEANVVL
# B51: SEFLLRIF (peptide)
# peptide: SEFLLRIF
# B52: EEIFAHLGL (peptide)
# peptide: EEIFAHLGL
# B53: EEFLRPRSL (peptide)
# peptide: EEFLRPRSL
# B54: AEALVDGKWQEF (peptide)
# peptide: AEALVDGKWQEF
# B55: REILHAQTL (peptide)
# peptide: REILHAQTL
# B56: AEALVDGKW (peptide)
# peptide: AEALVDGKW
# B57: EEEVFSGMKL (peptide)
# peptide: EEEVFSGMKL
# B58: KEMQVTISQQL (peptide)
# peptide: KEMQVTISQQL
# B59: AEFVPKADLL (peptide)
# peptide: AEFVPKADLL
# B60: SEAKEIKSQL (peptide)
# peptide: SEAKEIKSQL
# B61: REAEEKEAQL (peptide)
# peptide: REAEEKEAQL
# B62: TEANVQALF (peptide)
# peptide: TEANVQALF
# B63: YERPTLVEL (peptide)
# peptide: YERPTLVEL
# B64: EVEVGDRTDW (peptide)
# peptide: EVEVGDRTDW
# B65: AEGEPPPAL (peptide)
# peptide: AEGEPPPAL
# B66: AEHDMKSVL (peptide)
# peptide: AEHDMKSVL
# B67: SEASVYLFRF (peptide)
# peptide: SEASVYLFRF
# B68: TEQALRLSV (peptide)
# peptide: TEQALRLSV
# B69: TEEPQRLFY (peptide)
# peptide: TEEPQRLFY
# B70: EEHSSKLQTSL (peptide)
# peptide: EEHSSKLQTSL
# Target: T1, HLA-B*44:05 (human)
# T1 construct: also called peptide-receptive MHC class I molecule
# Experiment: UV peptide exchange, anti-b2m ELISA
# Description: Only peptide candidates that can effectively bind and stabilize the peptide-receptive MHC molecules prevent dissociation of the MHC complexes. To determine the yield of the exchange reaction, an ELISA was performed based on the detection of the light chain (β2m) of stabilized MHC complexes. The assay was performed as generally described in Rodenko et al. (Rodenko et al., 2006)
# 96 well MAXISorp plates (NUNC) were coated over night with 2 ug/ml streptavidin in PBS at room temperature, washed 4× and blocked for 1 h at 37° C. in 2% BSA containing blocking buffer. […] Peptide-MHC monomers of the UV-exchange reaction were diluted 100-fold in blocking buffer. Samples were incubated for 1 h at 37° C., washed four times, incubated with 2 ug/ml HRP conjugated anti-β2m for 1 h at 37° C., washed again and detected with TMB solution that is stopped with […]. Absorption was measured at 450 nm.
row,peptide exchange yield,Binder
1,> 75%,B1
2,20 to 50%,B2
3,> 75%,B3
4,50 to 75%,B4
5,50 to 75%,B5
6,> 75%,B6
7,50 to 75%,B7
8,20 to 50%,B8
9,50 to 75%,B9
10,20 to 50%,B10
11,> 75%,B11
12,50 to 75%,B12
13,> 75%,B13
14,50 to 75%,B14
15,20 to 50%,B15
16,50 to 75%,B16
17,10 to 20%,B17
18,50 to 75%,B18
19,50 to 75%,B19
20,50 to 75%,B20
21,50 to 75%,B21
22,50 to 75%,B22
23,50 to 75%,B23
24,50 to 75%,B24

row,peptide exchange yield,Binder
1,20 to 50%,B25
2,50 to 75%,B26
3,20 to 50%,B27
4,50 to 75%,B28
5,10 to 20%,B29
6,20 to 50%,B30
7,50 to 75%,B31
8,20 to 50%,B32
9,50 to 75%,B33
10,20 to 50%,B34
11,> 75%,B35
12,20 to 50%,B36
13,> 75%,B37
14,50 to 75%,B38
15,50 to 75%,B39
16,20 to 50%,B40
17,50 to 75%,B41
18,> 75%,B42
19,20 to 50%,B43
20,20 to 50%,B44
21,> 75%,B45
22,> 75%,B46
23,50 to 75%,B47
24,50 to 75%,B48

row,peptide exchange yield,Binder
1,20 to 50%,B49
2,50 to 75%,B50
3,20 to 50%,B51
4,50 to 75%,B52
5,20 to 50%,B53
6,50 to 75%,B54
7,50 to 75%,B55
8,50 to 75%,B56
9,> 75%,B57
10,> 75%,B58
11,50 to 75%,B59
12,50 to 75%,B60
13,50 to 75%,B61
14,> 75%,B62
15,50 to 75%,B63
16,20 to 50%,B64
17,50 to 75%,B65
18,50 to 75%,B66
19,50 to 75%,B67
20,> 75%,B68
21,10 to 20%,B69
22,> 75%,B70
